Test [1] deals with human DNA polymerase delta (human) (UniProt P28340). Briefly: cell-based or functional assay.
Test [2] has as its target E. coli Pol III (Escherichia coli) (UniProt P10443). Briefly: cell-based or functional assay.
Test [3] deals with Thermus thermophilus DNA polymerase III purified from T.th. cell extracts. Briefly: cell-based or functional assay.
In test [4] the target is T1, Aquifex aeolicus α subunit of DNA polymerase III (Aquifex aeolicus, UniProt O67125 1-1161).
T1 construct: Recombinant, expressed in E. coli from pETAadnaE (pET24); also called A.ae. α; Aquifex α
T1 sequence: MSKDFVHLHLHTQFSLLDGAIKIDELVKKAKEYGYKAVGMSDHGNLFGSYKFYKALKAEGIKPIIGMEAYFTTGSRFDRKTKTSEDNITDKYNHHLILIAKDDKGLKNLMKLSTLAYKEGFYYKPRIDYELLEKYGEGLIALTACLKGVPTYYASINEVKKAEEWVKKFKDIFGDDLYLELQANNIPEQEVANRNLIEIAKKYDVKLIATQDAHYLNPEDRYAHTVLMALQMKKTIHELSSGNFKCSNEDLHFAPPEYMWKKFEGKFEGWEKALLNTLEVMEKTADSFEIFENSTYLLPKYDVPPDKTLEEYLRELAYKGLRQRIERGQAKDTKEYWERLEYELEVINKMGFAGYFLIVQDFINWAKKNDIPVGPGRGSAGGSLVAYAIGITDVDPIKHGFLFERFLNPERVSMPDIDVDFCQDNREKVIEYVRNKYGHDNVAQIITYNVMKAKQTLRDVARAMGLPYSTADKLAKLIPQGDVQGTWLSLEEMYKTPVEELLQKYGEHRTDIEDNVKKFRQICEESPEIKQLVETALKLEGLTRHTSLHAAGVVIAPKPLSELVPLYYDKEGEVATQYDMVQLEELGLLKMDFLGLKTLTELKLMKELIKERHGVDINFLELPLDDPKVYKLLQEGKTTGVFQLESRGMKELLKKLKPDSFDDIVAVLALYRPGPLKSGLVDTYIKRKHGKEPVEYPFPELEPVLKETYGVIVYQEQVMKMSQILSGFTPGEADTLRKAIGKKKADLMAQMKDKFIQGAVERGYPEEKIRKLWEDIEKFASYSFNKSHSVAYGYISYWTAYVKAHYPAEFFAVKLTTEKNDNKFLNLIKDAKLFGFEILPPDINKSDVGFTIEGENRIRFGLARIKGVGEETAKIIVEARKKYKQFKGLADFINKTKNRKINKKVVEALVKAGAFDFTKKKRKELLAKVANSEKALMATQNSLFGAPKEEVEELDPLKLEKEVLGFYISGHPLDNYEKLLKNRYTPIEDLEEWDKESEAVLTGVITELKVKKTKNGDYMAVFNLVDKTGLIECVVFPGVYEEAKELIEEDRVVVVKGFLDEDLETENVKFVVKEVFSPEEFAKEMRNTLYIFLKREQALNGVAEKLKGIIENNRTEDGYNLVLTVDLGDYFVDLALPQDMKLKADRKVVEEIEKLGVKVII
Nature of the test: complex constitution from pure subunits, column chromatography.

From patent publication US20040038290A1 (ROCKEFELLER UNIVERSITY, published 2004) come the findings set out here.

Sequence of human DNA polymerase delta (human) (P28340 whole entry, stated change not applied): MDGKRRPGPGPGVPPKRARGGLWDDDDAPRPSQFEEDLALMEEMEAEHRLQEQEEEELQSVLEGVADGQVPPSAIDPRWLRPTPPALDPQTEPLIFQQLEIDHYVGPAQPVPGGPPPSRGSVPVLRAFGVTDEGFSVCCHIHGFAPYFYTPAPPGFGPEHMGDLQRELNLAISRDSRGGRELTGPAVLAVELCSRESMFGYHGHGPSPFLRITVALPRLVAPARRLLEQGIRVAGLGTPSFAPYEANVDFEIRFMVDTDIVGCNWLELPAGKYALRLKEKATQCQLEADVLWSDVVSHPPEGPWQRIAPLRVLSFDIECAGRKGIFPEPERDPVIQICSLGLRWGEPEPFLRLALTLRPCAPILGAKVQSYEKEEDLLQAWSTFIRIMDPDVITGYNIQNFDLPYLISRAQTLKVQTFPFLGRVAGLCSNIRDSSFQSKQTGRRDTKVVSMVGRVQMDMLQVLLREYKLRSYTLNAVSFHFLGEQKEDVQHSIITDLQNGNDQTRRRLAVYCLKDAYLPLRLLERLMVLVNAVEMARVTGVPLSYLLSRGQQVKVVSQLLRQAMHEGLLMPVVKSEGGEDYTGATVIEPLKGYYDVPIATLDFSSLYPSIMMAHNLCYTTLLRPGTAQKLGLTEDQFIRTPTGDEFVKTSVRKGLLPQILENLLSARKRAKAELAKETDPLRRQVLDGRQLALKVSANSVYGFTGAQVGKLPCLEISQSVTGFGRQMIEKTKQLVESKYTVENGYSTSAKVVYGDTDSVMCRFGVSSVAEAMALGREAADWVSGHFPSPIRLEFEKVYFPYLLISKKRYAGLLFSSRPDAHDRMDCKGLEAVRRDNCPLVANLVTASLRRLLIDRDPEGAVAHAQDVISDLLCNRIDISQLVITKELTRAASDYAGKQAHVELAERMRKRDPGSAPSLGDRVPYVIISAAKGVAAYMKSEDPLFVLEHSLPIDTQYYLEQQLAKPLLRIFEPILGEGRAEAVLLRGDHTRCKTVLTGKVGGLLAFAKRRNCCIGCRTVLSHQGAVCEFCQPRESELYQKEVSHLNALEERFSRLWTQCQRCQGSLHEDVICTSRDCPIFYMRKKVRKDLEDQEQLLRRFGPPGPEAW
Sequence of E. coli Pol III (Escherichia coli) (P10443 whole entry): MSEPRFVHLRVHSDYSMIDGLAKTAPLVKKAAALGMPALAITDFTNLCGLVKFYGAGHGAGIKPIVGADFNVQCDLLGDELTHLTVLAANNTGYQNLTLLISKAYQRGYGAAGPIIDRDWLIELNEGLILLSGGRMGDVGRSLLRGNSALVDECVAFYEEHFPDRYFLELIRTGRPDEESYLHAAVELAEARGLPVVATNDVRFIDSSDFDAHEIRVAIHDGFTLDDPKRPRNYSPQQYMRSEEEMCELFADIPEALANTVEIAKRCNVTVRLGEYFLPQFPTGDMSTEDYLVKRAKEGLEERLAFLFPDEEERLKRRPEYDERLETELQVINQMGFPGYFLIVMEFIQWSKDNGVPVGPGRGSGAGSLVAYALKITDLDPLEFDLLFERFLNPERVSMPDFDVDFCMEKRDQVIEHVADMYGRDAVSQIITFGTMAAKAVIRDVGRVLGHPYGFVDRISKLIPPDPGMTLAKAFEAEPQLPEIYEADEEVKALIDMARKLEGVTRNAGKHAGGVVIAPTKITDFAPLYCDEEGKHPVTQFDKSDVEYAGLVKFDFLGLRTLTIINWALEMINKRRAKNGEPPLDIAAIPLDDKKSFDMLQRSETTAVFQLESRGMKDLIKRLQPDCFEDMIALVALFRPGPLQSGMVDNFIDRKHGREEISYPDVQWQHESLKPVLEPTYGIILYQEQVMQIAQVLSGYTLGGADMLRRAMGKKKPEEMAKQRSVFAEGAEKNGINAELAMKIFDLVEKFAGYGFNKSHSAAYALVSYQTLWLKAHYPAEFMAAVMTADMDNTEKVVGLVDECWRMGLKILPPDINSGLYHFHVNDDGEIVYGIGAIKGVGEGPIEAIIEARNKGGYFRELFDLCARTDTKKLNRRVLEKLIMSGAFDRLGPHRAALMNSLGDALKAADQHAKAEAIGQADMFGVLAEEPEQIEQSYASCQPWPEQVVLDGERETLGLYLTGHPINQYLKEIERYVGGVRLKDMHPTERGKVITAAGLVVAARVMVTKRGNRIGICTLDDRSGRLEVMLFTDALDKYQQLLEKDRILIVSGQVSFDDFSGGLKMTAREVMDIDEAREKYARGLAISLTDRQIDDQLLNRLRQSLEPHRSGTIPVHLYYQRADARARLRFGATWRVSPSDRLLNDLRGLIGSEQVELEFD

In test [1], human PCNA (from UniProt P12004 1-261) yielded a pmol synthesis on oligodT-primed linear polydA, human Polδ with PCNA (lane 4) of 24 pmol and a pmol synthesis on oligodT-primed linear polydA, human Polδ without PCNA (lane 3, baseline) of 2 pmol.

In test [2], “E. coli β subunit (from UniProt P0A988 1-366)” displayed a pmol synthesis on oligodT-primed linear polydA, E. coli Pol III with β (lane 2) of 35 pmol and a pmol synthesis on oligodT-primed linear polydA, E. coli Pol III without β (lane 1, baseline) of 6 pmol.

B1: Thermus thermophilus β subunit, recombinant (protein)
chain: MNITVPKKLLSDQLSLLERIVPSRSANPLYTYLGLYAEEGALILFGTNGEVDLEVRLPAEAQSLPRVLVPAQPFFQLVRSLPGDLVALGLASEPGQGGQLELSSGRFRTRLSLAPAEGYPELLVPEGEDKGAFPLRTRMPSGELVKALTHVRYAASNEEYRAIFRGVQLEFSPQGFRAVASDGYRLALYDLPLPQGFQAKAVVPARSVDEMVRVLKGADGAEAVLALGEGVLALALEGGSGVRMALRLMEGEFPDYQRVIPQEFALKVQVEGEALREAVRRVSVLSDRQNHRVDLLLEEGRILLSAEGDYGKGQEEVPAQVEGPDMAVAYNARYLLEALAPVGDRAHLGISGPTSPSLIWGDGEGYRAVVVPLRVZ
In test [3], B1 returned a pmol synthesis on oligodT-primed linear polydA, T.th. Pol III with T.th. β (lane 6) of 1.9 pmol and a pmol synthesis on oligodT-primed linear polydA, T.th. Pol III without T.th. β (lane 5, baseline) of 0.6 pmol.

B2: Aquifex aeolicus tau subunit of DNA polymerase III (other)
chain: MNYVPFARKYRPKFFREVIGQEAPVRILKNAIKNDRVAHAYLFAGPRGVGKTTIARILAKALNCKNPSKGEPCGECENCREIDRGVFPDLIEMDAASNRGIDDVRALKEAVNYKPIKGKYKVYIIDEAHMLTKEAFNALLKTLEEPPPRTVFVLCTTEYDKILPTILSRCQRIIFSKVRKEKVIEYLKKICEKEGIECEEGALEVLAHASEGCMRDAASLLDQASVYGEGRVTKEVVENFLGILSQESVRSFLKLLLNSEVDEAIKFLRELSEKGYNLTKFWEMLEEEVRNAILVKSLKNPESVVQNWQDYEDFKDYPLEALLYVENLINRGKVEARTREPLRAFELAVIKSLIVKDIIPVSQLGSVVKETKKEEKKVEVKEEPKVKEEKPKEQEEDRFQKVLNAVDGKILKRILEGAKREERDGKIVLKIEASYLRTMKKEFDSLKETFPFLEFEPVEDKKKPQKSSGTRLF
notes: Recombinant, expressed in E. coli from pETAadnaX (pET24); also called A.ae. tau
For B2, the binding result in test [4] is on record as “binds”.
